Legend:
RICK [1] = molecular target: T1, RICK (UniProt O43353 1-540, limits assumed, 35S label in the in vitro assay); assay: restated from Example 3; construct not named
T1 construct: also called 35S-labeled RICK; RIP2

pro-caspase-2 = molecular target: T2, pro-caspase-2 (UniProt P42575 1-452, limits assumed); assay: GST pull-down in vitro or co-immunoprecipitation from 293 T cells (data not shown)
T2 sequence (looked up): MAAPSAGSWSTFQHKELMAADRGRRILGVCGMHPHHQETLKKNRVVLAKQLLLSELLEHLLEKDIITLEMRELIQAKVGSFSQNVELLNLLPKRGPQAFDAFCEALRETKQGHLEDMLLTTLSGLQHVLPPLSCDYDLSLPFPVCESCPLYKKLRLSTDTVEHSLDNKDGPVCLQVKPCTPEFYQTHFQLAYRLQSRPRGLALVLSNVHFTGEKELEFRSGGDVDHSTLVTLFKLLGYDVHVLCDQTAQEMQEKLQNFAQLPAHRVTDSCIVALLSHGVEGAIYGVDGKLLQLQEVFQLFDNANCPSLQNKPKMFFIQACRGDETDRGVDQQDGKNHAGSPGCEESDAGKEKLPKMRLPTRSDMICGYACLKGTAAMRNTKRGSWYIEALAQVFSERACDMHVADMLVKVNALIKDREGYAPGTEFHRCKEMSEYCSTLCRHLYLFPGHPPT
Method: (§1) Cells were then centrifuged at 10000 g for 15 min and supernatants were incubated for 2 h at 4° C. with gluthatione Sepharose 4B resin (Amersham Pharmacia Biotech). The protein-bound resin (30 μl) was washed with GST buffer and incubated overnight at 4° C. in the presence of 5 μl of ³⁵S-labeled in vitro-translated products. Labeled proteins were prepared from pcDNA3 constructs by in vitro transcription and translation in the presence of ³⁵S-methionine using T7-coupled transcription/translation TNT kit according to the manufacturer's instructions (Promega, Madison, Wis.). Samples of the protein-bound resins were washed three times in GST buffer, boiled in sodium dodecyl sulfate (SDS) Laemmli sample buffer and fractionated by electrophoresis on an SDS-polyacrylamide gel. Proteins were then visualized by autoradiography.
(§2) Human embryonic kidney 293 T cells, were cultured in […] dishes in Dulbecco modified essential medium (DMEM) supplemented with 10% fetal bovine serum (FBS) and antibiotics (Life Technologies). Cells at 50% confluency, were transiently co-transfected with equal amounts of T7-pcDNA3 and Flag-pCMV2 constructs (total DNA of 10 μg/dish) in OptiMEM using the lipofectamine method according to the manufacturer's recommendations (Life Technologies). Twelve hours after transfection, OptiMEM was replaced with DMEM/10% FBS. Twenty four hours later, cells were lysed in 300 μl of a buffer containing 25 mM tris(hydroxymethylaminomethane), pH 7.6, 150 mM NaCl, 1% nonidet-P40, and PMSF. Samples were centrifuged. One third of the supernatant was put aside to verify by Western blot the expression of the proteins. The remaining 200 μl of supernatant were incubated for 2 h at 4° C. with anti-Flag M5 plus M2 monoclonal antibodies (Ab; Sigma). The immune complexes were precipitated overnight at 4° C. with protein-G Sepharose (Amersham-Pharmacia Biotech), washed extensively and then eluted by boiling in SDS-sample buffer. The eluted proteins were resolved by SDS-PAGE and detected by Western blot analysis with horseradish peroxidase (HRP)-conjugated anti-T7 Ab (Novagen, Madison, Wis.). Bands were then detected using enhanced chemoluminescence kit (Amersham Pharmacia Biotech).

pro-caspase-4 = molecular target: T3, pro-caspase-4 (UniProt P49662 1-377, limits assumed); assay: as above
T3 sequence (looked up): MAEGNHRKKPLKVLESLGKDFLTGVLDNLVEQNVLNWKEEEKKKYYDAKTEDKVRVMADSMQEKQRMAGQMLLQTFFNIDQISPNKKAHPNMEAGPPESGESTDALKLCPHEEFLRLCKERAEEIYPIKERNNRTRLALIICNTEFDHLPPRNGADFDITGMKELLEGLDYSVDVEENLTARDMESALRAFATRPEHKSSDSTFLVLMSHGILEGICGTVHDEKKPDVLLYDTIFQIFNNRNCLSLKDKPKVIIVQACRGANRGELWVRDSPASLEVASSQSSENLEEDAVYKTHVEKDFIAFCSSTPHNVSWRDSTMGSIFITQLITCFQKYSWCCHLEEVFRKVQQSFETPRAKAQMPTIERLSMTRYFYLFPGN
Method: as §1, §2

Apaf-1 = molecular target: T4, Apaf-1 (human, UniProt O14727 1-1248, limits assumed); assay: as above
T4 sequence (looked up): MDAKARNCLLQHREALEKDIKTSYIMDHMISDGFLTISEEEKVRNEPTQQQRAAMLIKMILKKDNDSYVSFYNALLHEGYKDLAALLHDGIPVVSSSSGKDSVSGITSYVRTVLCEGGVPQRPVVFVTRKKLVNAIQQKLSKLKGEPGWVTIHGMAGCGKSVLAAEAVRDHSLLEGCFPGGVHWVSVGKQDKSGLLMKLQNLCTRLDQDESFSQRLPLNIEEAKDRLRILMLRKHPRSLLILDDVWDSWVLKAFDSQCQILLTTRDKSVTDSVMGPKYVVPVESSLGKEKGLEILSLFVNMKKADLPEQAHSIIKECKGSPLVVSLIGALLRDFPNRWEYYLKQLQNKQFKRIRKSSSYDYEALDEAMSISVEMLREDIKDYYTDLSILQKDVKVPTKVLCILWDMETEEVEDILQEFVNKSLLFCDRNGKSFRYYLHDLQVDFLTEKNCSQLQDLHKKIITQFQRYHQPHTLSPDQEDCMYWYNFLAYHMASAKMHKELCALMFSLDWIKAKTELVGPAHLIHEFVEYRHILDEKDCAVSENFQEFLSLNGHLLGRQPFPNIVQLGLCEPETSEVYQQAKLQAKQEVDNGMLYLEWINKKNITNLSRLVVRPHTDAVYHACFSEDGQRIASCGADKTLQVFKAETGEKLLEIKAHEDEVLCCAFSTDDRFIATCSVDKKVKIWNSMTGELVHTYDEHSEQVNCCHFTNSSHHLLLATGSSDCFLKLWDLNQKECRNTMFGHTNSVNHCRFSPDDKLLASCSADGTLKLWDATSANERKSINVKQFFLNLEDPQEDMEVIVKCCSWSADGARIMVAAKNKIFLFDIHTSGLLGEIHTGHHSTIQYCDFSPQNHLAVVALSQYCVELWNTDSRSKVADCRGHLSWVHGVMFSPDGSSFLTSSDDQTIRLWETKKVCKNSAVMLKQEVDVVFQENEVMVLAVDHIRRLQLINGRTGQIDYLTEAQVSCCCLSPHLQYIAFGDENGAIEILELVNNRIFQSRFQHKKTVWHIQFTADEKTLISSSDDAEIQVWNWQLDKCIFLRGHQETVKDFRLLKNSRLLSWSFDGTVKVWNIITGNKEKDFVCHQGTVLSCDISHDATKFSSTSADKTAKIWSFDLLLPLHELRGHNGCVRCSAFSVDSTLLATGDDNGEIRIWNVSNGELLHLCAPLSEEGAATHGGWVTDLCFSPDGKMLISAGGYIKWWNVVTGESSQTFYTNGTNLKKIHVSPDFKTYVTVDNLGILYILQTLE
Method: as §1, §2

c-CLAP = molecular target: T5, c-CLAP (human, UniProt O95999 1-233, limits assumed); assay: as above
T5 sequence (looked up): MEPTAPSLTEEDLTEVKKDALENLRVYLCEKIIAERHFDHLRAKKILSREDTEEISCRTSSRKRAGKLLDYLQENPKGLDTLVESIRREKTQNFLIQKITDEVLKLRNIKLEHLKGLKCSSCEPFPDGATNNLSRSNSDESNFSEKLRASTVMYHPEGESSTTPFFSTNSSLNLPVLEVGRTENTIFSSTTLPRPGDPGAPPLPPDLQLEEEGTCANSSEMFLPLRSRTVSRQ
Method: as §1, §2

c-IAP2 = c-IAP2 (UniProt Q13489 1-604, limits assumed); assay: as above
Method: as §1, §2

CRADD [2] = molecular target: T6, CRADD (human, UniProt P78560 1-199, limits assumed); assay: GST pull-down in vitro or co-immunoprecipitation from 293 T cells (T7-CRADD with Flag-Pseudo-ICE, Panel C of FIG. 2)
T6 construct: also called T7-tagged CRADD
Method: as §2, with “buffer.” for “buffer. The eluted proteins were resolved by SDS-PAGE and detected by Western blot analysis with horseradish peroxidase (HRP)-conjugated anti-T7 Ab (Novagen, Madison, Wis.). Bands were then detected using enhanced chemoluminescence kit (Amersham Pharmacia Biotech).”

GST = molecular target: T7, GST (UniProt P08515 1-218 = GST); assay: GST pull-down on glutathione resin of in vitro translated 35S-labeled protein, autoradiography [panel B]
T7 construct: also called gluthatione-S-transferase; GST alone
Method: as §1

CRADD [3] = molecular target: T6, CRADD; assay: GST pull-down in vitro or co-immunoprecipitation from 293 T cells (T7-CRADD with Flag-ICE-Like, Panel C of FIG. 2)
Method: as §2, with “buffer.” for “buffer. The eluted proteins were resolved by SDS-PAGE and detected by Western blot analysis with horseradish peroxidase (HRP)-conjugated anti-T7 Ab (Novagen, Madison, Wis.). Bands were then detected using enhanced chemoluminescence kit (Amersham Pharmacia Biotech).”

Flag-tagged RICK = molecular target: T8, Flag-tagged RICK (UniProt O43353 1-540); assay: co-immunoprecipitation from 293 T cells cotransfected with Flag-RICK, T7-Casp1C/A and rising amounts of T7-ICE-Like: IP anti-Flag, western blot anti-T7 [panel B]
T8 construct: Expressed in 293 T cells, precipitated with anti-Flag antibodies; also called Flag-RICK; RIP2; not shown: Flag tag
Method: as §2

RICK [4] = molecular target: T1, RICK; assay: GST pull-down of 35S-labelled RICK (data not shown)
Method: as §1

T1 sequence (O43353 whole entry): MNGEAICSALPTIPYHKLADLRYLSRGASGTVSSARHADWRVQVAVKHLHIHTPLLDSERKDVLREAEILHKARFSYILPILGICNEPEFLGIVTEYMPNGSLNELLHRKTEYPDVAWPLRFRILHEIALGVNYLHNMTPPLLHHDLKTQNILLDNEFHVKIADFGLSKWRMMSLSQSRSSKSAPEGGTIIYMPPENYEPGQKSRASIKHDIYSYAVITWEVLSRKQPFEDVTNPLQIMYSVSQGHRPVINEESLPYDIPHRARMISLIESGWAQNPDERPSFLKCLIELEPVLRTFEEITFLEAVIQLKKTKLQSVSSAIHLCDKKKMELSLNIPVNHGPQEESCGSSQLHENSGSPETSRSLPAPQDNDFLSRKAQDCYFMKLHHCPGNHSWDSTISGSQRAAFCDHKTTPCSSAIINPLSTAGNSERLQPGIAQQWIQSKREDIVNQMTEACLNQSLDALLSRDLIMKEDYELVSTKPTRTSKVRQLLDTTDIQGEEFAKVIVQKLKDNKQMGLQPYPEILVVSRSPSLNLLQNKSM
T7 sequence (P08515 whole entry): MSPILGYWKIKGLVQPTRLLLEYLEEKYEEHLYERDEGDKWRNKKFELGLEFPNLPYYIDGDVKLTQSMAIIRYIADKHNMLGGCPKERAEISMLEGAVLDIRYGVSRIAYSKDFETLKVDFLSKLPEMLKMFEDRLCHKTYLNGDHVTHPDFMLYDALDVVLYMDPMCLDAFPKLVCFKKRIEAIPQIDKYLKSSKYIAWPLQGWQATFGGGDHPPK
T6 sequence (P78560 whole entry): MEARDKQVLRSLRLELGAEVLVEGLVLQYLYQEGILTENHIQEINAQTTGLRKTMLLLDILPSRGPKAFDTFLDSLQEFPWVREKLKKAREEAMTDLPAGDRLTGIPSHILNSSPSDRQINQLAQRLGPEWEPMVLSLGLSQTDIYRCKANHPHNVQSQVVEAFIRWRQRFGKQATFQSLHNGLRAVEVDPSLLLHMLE
Chain of c-IAP2 (Q13489 whole entry): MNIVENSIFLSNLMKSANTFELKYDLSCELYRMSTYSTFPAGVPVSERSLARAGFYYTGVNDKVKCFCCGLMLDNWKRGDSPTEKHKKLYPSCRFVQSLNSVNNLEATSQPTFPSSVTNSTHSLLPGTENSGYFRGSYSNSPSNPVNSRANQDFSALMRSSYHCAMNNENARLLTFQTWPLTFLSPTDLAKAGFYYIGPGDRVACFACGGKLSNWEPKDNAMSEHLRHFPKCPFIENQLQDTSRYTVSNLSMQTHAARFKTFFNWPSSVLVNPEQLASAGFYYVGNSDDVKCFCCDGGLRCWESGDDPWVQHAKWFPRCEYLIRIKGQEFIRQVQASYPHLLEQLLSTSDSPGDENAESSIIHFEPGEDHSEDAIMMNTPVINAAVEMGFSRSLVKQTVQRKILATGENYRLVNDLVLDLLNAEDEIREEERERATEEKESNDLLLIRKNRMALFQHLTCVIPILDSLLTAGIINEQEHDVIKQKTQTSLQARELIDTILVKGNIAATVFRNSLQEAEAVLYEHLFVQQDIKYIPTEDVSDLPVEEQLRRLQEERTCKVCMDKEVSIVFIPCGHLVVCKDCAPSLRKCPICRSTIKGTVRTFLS
T8 sequence (O43353 whole entry): as the sequence (O43353 whole entry) above

Binder | binding result (RICK [1]) | binding result (pro-caspase-2) | binding result (pro-caspase-4) | binding result (Apaf-1) | binding result (c-CLAP) | binding result (c-IAP2) | binding result (CRADD [2]) | binding result (GST) | binding result (CRADD [3]) | binding result (Flag-tagged RICK) | binding result (RICK [4])
Pseudo-ICE (other, 35S-methionine label in the in vitro assay, Used for the 35S-labelled in vitro translated product (made from a pcDNA3 construct); also called 35S-labeled Pseudo-ICE; in vitro translated Pseudo-ICE) MADKVLKEKRKLFIHSMGEGTINGLLDELLQTRVLNQEEMEKVKRENATVMDKTRALIDSVIPKGAQACQICITYICEEDSYLAETLGLSAGPIPGN | binds | no binding | no binding | no binding | no binding | no binding | no binding | no binding |  |  | 
ICE-Like (other, 35S-methionine label in the in vitro assay, Used for the 35S-labelled in vitro translated product (made from a pcDNA3 construct); also called 35S-labeled ICE-Like; in vitro translated ICE-Like) MADQLLRKKRRIFIHSVGAGTINALLDCLLEDEVISQEDMNKVRDENDTVMDKARVLIDLVTGKGPKSCCKFIKHLCEEDPQLASKMGLH | no binding | no binding | no binding | no binding | no binding | no binding |  | no binding | no binding |  | 
T7-tagged ICE-Like (other, not shown: small tags and cut ends, Expressed from pcDNA3 in 293 T cells, or from pMSCVneo retroviral vector in THP-1 cells; also called T7-ICE-Like) MADQLLRKKRRIFIHSVGAGTINALLDCLLEDEVISQEDMNKVRDENDTVMDKARVLIDLVTGKGPKSCCKFIKHLCEEDPQLASKMGLH |  |  |  |  |  |  |  |  |  | no binding | 
GST-conjugated ICE-Like (other, GST is put first by the usual make of pGEX vectors; also called ICE-Like-GST; GST-ICE-Like; not shown: glutathione-S-transferase (GST) from vector pGEX-5X 3) MADQLLRKKRRIFIHSVGAGTINALLDCLLEDEVISQEDMNKVRDENDTVMDKARVLIDLVTGKGPKSCCKFIKHLCEEDPQLASKMGLH |  |  |  |  |  |  |  |  |  |  | no binding

From patent US20030166192A1 (published 2003)
